Data as given in patent publication US20110162109A1 (BASF PLANT SCIENCE, published 2011).

B1: HUB1 (Histone Monoubiquitination 1), At2g44950, Arabidopsis thaliana (enzyme)
chain: MASTGEPDRKRRHFSSISPSEAAAAVKKQPFFWPSSEDKLDTAVLQFQNLKLSQKLEAQQVECSILEDKLSQIKEKQLPYNSSLKTVHKSWEKLTASVESCSVRVSDSSSGAHRFVNKEDGSSPAVKNDFINRLLETGATESSSSNICSNQMEENGVNTSSQMTQTLYNLVAATEDLRCLKDELYPTVLRTNLGKDLCGQLALSELESEIKSFRGDLDDVLVKFKSLSRELQSHRDADAKVRVDLKRIRGELEDEVVELQQCNGDLSALRAERDATAGAFFPVLSLGNKLATSDRERDKQRDLQDMETVLKELTVLASGRLQQLKNLHEERTKMLGKMSNLQNKSKSVRCISSSQACLSLKDQLEKSKEAVFQYMALLEKLQVEKDSIVWKEREINIKNELGDVSRKTSAVTDSRMASLDSEIQKQLDEKMRIKTRLGNISRERGRKEIFADMKALISSFPEEMSSMRSQLNNYKETAGGIHSLRADVQSLSGVLCRKTKEYEALQLRSADYASQLGDLNATVCDLKNSHEELKLFLDMYKRESTDARDIAEAKEQEYRAWAHVQSLKSSLDEQNLELRVKAANEAEAVSQQMLAAAEAEIADLRQKMDDCKRDVAKHSDILKSKHEEHGTYLSEIQTIGSAYEDIVPQNQRLLLQVTERDDYNIKLFLEGITSRQMQDTLLIDKYIMDKDIQQGSAYASFLSKKSSRIEDQLRFCTDQFQKLAEDKYQKSVSLENLQKKRADIGNGLEQARSRLEESHSKVEQSRLDYGALELELEIERFNRRRIEEEMEIAKKKVSRLRSLIEGSSAIQKLRQELSEFKEILKCKACNDRPKEVVITKCYHLFCNPCVQKLTGTRQKKCPTCSASFGPNDIKPIYI
notes: Full length HUB1; In the TAP experiments N-terminally fused to the TAP tag or the GS-TAP tag; in yeast two-hybrid fused to AD (pDEST22) or BD (pDEST32); all these constructs are written under this one entry; also called HUB1fl; full length HUB1

Tests used:
[1] = biological target: Spen like protein, At1g27750 (Arabidopsis thaliana); test: GS-TAP purification + MALDI-TOF-TOF MS, bait SL (a); expectance is the MS identification score
[2] = biological target: Spen like protein, At1g27750 (Arabidopsis thaliana); test: GS-TAP purification + MALDI-TOF-TOF MS, bait SL (b); expectance is the MS identification score
[3] = biological target: HUB1 (Histone Monoubiquitination 1), At2g44950, Arabidopsis thaliana (Arabidopsis thaliana) (UniProt Q8RXD6); test: GS-TAP purification + MALDI-TOF-TOF MS, bait HUB1 (b); expectance is the MS identification score
[4] = biological target: T1, HUB2, At1g55250, Arabidopsis thaliana (Arabidopsis thaliana, UniProt Q9C895 1-900); test: GS-TAP purification + MALDI-TOF-TOF MS, bait HUB2 (a); expectance is the MS identification score
T1 construct: As prey the endogenous protein of Arabidopsis cell culture; as bait N-terminal GS-TAP fusion; in yeast two-hybrid an AD fusion; also called AAG51572.1
T1 sequence: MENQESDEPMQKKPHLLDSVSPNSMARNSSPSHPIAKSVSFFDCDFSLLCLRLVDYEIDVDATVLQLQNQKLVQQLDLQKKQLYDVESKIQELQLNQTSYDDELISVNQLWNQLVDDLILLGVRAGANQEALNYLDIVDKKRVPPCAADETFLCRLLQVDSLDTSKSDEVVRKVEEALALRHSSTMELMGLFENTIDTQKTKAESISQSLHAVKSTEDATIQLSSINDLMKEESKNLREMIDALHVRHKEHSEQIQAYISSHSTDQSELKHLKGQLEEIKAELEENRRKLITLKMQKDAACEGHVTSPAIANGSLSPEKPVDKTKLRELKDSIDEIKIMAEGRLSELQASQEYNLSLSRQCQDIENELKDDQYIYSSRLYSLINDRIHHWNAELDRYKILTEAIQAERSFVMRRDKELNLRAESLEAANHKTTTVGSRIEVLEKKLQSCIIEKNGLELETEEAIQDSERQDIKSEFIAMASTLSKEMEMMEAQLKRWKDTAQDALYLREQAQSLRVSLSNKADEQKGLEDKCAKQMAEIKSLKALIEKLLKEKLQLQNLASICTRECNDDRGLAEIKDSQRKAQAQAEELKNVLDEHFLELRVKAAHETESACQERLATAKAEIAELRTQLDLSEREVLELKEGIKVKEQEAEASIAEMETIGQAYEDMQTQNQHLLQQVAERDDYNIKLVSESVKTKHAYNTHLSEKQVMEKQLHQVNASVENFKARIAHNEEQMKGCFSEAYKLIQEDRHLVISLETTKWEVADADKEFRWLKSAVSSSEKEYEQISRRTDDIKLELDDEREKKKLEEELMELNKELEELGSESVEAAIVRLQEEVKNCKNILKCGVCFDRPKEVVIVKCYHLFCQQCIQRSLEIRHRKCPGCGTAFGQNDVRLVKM

[5] = biological target: T1, HUB2, At1g55250, Arabidopsis thaliana; test: GS-TAP purification + MALDI-TOF-TOF MS, bait HUB2 (b); expectance is the MS identification score
[6] = biological target: HUB1 (Histone Monoubiquitination 1), At2g44950, Arabidopsis thaliana (Arabidopsis thaliana) (UniProt Q8RXD6); test: GS-TAP purification + MALDI-TOF-TOF MS, bait HUB1 (a′); expectance is the MS identification score
[7] = biological target: HUB1 (Histone Monoubiquitination 1), At2g44950, Arabidopsis thaliana (Arabidopsis thaliana) (UniProt Q8RXD6); test: GS-TAP purification + MALDI-TOF-TOF MS, bait HUB1 (b′); expectance is the MS identification score
[8] = biological target: UBC2, At2g02760 (Arabidopsis thaliana) (UniProt P42745); test: GS-TAP purification + MALDI-TOF-TOF MS, bait UBC2 (third block); expectance is the MS identification score
[9] = biological target: SEUSS, At1g43850 (Arabidopsis thaliana) (UniProt Q8W234); test: GS-TAP purification + MALDI-TOF-TOF MS, bait SEUSS (a); expectance is the MS identification score
[10] = biological target: SEUSS, At1g43850 (Arabidopsis thaliana) (UniProt Q8W234); test: GS-TAP purification + MALDI-TOF-TOF MS, bait SEUSS (b); expectance is the MS identification score
[11] = biological target: histone H2B
[12] = biological target: the molecule itself; test: TAP with N-terminally TAP-tagged HUB1 from Arabidopsis cell culture, mass spectrometry; column Confirmed
Method: Because the RING proteins have their functionally important domain at the C-terminus, an N-terminal fusion was prepared instead of the traditional C-terminal fusion by cloning both full length and the point mutant form of HUB1 (HUB1pm, HUB1fl). The Arabidopsis cell cultures were transformed with the two constructs and cultivated on 10 litre scale, harvested and purified by TAP (Van Leene et al., Mol. Cell. Proteomics 6, 1226-38, 2007). The protein extracts were separated on 1-D SDS-PAGE gels and isolated from gel for protein identification by mass spectrometry (Laukens et al., Proteomics. 4, 720-7, 2004, Van Leene et al., 2007). Two cut offs were used resulting in “confirmed” and “to be confirmed” candidate interactor lists (Table I).
In the data set of confirmed interactors TAP HUB1 and HUB2 were present, […] the dimer formation between the homologues. In addition, the acetyltransferase GCN5, RNA binding proteins and a KH domain protein were identified as HUB1 interacting proteins. Most of these proteins are known to be localized in nucleus or nucleoli. GFP constructs of HUB1 have also been localized to nucleus (Liu et al., 2007). When HUB1pm was used for TAP purification no HUB2 could be identified as an interacting protein.

[13] = biological target: B1; test: yeast two-hybrid
[14] = biological target: T1, HUB2, At1g55250, Arabidopsis thaliana; test: yeast two-hybrid

Chain of SEUSS, At1g43850 (Arabidopsis thaliana) (Q8W234 whole entry): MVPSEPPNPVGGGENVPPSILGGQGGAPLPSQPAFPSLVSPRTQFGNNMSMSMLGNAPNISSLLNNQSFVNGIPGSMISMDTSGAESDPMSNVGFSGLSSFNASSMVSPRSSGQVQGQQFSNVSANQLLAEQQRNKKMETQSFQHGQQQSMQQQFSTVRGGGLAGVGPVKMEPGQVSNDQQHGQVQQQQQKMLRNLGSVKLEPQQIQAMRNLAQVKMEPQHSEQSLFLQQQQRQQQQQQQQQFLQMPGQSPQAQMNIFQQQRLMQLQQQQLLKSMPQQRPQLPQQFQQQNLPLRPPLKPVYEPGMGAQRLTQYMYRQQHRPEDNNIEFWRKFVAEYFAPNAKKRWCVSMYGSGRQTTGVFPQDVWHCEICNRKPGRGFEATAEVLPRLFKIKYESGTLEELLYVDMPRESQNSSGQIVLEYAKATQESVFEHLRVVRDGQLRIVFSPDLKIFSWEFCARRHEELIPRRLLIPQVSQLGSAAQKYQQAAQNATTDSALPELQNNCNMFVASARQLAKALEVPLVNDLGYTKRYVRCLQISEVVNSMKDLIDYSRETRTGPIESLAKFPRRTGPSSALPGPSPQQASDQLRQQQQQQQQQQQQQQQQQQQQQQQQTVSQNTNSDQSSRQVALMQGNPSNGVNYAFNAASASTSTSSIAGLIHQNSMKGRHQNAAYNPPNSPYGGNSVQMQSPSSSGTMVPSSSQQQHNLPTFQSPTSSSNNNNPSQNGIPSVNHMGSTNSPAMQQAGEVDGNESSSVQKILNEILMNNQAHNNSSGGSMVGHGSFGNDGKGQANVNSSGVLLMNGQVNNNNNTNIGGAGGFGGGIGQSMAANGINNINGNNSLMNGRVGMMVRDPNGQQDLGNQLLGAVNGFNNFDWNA

In the case of KH domain protein, At1g51580, the Expectance [1] is reported as 0.00054, the Expectance [2] is reported as 2.6e-12 and the Expectance [3] is reported as 1.6e-08. The Expectance [4] was 1.3e-08, the Expectance [5] was 1.6e-09 and the Expectance [6] was 2.1e-09. It also gave an Expectance [7] of 3.3e-09.

With Spen like protein, At1g27750 the Expectance [4] was 0.00097, the Expectance [5] was 1e-24 and the Expectance [6] was 6.5e-16. It also gave an Expectance [7] of 0.024.

“AtUBA2, AT5G06460 (from UniProt P92974 1-1077) (enzyme)” showed an Expectance [8] of 0.00026.

“LUH, At2G32700 (from UniProt O48847 1-787)” showed an Expectance [9] of 3.3e-99 and an Expectance [10] of 2.1e-82.

In the case of “AtUBA1, AT2G30110 (from UniProt P93028 1-1080) (enzyme)”, the Expectance [8] is reported as 0.00082.

In the case of B1, the “monoubiquitination of histone H2B in the in vitro ubiquitination assay (protein gel blot)” value [11] is reported as “shift of H2B by 10 kDa” and the binding result [12] is reported as “binds”.

B2: UBC2, At2g02760 (enzyme, Arabidopsis thaliana, UniProt P42745 1-152, looked up)
chain: MSTPARKRLMRDFKRLQQDPPAGISGAPQDNNIMLWNAVIFGPDDTPWDGGTFKLSLQFSEDYPNKPPTVRFVSRMFHPNIYADGSICLDILQNQWSPIYDVAAILTSIQSLLCDPNPNSPANSEAARMFSESKREYNRRVREVVEQSWTAD
notes: As bait N-terminal GS-TAP fusion; fusion protein in yeast two-hybrid; also called E2 conjugating enzyme UBC2
B2: no binding [13]; no binding [14].

B3: UBC3 (E2 conjugating enzyme, Arabidopsis thaliana) (enzyme, UniProt P42746 1-150, looked up)
chain: MTTPAKKRLMWDFKRLQKDPPVGISGAPQDNNIMHWNALIFGPEDTPWDGGTFKLTLHFTEDYPNKPPIVRFVSRMFHPNIYADGSICLDILQNQWSPIYDVAAVLTSIQSLLCDPNPDSPANAEAARLFSENKREYNRKVIEIVEQSYV
notes: Yeast two-hybrid fusion
B3: no binding [13]; no binding [14].

B4: UBC1 (E2 conjugating enzyme, Arabidopsis thaliana) (enzyme, UniProt P25865 1-152, looked up)
chain: MSTPARKRLMRDFKRLQQDPPAGISGAPQDNNIMLWNAVIFGPDDTPWDGGTFKLSLQFSEDYPNKPPTVRFVSRMFHPNIYADGSICLDILQNQWSPIYDVAAILTSIQSLLCDPNPNSPANSEAARMYSESKREYNRRVRDVVEQSWTAD
notes: Yeast two-hybrid fusion
B4: no binding [13]; no binding [14].
